From the nanobody polyreactivity screen of Harvey et al. (2022)

Test: yeast display, Sf9 membrane polyspecificity reagent, FACS + sequencing; frameworks hold sequencing errors
Outline: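 Galactose induction of a Saccharomyces cerevisiae BJ5465 synthetic nanobody display library ran 36–48 hours. The cells were then stained for 1 hour at 4 °C with 10% biotinylated, detergent-solubilized Sf9 membrane reagent, pulled down on streptavidin microbeads and FACS-sorted into low and high (top ~1%) gates on expression and reagent-binding fluorescence. Labels for polyreactivity follow the gate of origin.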

Sequence: QVQLVESGGGLVQAGGSLRLSCAASGSTFIFYAMGWYRQAPGKERELVASITSRAASTYYADSVKGRFTISRDIAKNTVYLQMNSLKPEDTAVYYCAATFSYTLFWWSSFLLYDYWGQGTQVTVSS
- polyreactivity (PSR sort gate): low polyreactivity

Sequence: QVQLVESGGGLVQAGGSLRLSCAASGSIFTFYAMGWYRQAPGKERELVAAISSSGTSTYYADSVQGRFTISRDNAKNTVYLQMNSLKPEDTAVYYCNVPMPPAKAEYGYWGQGTQVTVSS
- polyreactivity (PSR sort gate): high polyreactivity

Sequence: QVQLVESGGGLVQAGGSLRLSCAASGRTFVYNAMGWYRQEPGKERELVAAITWNGGSKYYADSVKGRFTISRDNAKITVYLQMNSLKPEDTAVYYCNRDVRYVGPSGFDYWGQGTQVTVSS
- polyreactivity (PSR sort gate): high polyreactivity

Sequence: QVQLVESGGGLVQAGGSLRLSCAASGSTFFFYAMGWYRQAPGKERELVAAISSGGTTDYADSVKGRFTISRDNAKNTVYLQMNSLKPEDTAVYYCAATYVYWTWGYDYWGQGTQVTVSS
- polyreactivity (PSR sort gate): low polyreactivity

Sequence: QVQLVESGGGLVQAGGSLRLSCAASGSTFPDYAMGWSRPAPGKERELVATINDGDSTSYADSVKGRFTISRDNAKNTVYLQMNSLKTEDTAVYYCAADIRSNRLYDGGYWGQGTQVTVSS
- polyreactivity (PSR sort gate): low polyreactivity

Sequence: QVQLLESGGGLDQAGGSLRLSTAASGSTFGVYAMGWYRQARGKEREMVAAISRRGGSTYYADSVKGRFTISRDNAKNTVYLQMNSLKPEDTAVYYCAARGGQMEYWGQGTQVTVSS
- polyreactivity (PSR sort gate): high polyreactivity

Sequence: QVQLVESGGGLVQAGGSLRLSCAASGSIFALYAMGWYRQAPGKERELVAAISYRGGRTYYADSVKGRFTISRDNAKNTVYLQMYSLKPEDTAVYNCATDFPGKFDYWGQGTQVTVSS
- polyreactivity (PSR sort gate): low polyreactivity

Sequence: QVQLVDSGGGLVQAGGSLRLSCAASGLTFSKYAMGWYRQAPGKERELVATITRRGSSTYYADSVKGRFTISRDNAKNTVYLQMNSLKPEDTAVYYCNAVGVRRAIGYPSQTEYGYWGQGTQVTVSS
- polyreactivity (PSR sort gate): high polyreactivity

Sequence: QVQLVESGGGLVQAGGSLRLSCAASGSTFSVYGMGWYRQAPGKERELVAINIIGGSTYYADSVKGRFTISRDNAKNTVYLQMNSLKPEDTAVYYCAADSFPSEFDYWGQGTQVTVSS
- polyreactivity (PSR sort gate): low polyreactivity

Sequence: QVQIVESCGGLVQAGGSLRLICAATGSIFLRNTMGWYRQAPAKQRELVASIDWSGGITYYADSVKGRFTISRDNAKNTVYLQMNSLKQEDTAVYFCNAVFLYPFNVPTMEYWGQGTQVTVSS
- polyreactivity (PSR sort gate): low polyreactivity

Sequence: QVQLVESGGGLVQAGGSLRLSCAASGSIFYRNVMGWYRQAPGKERELVAAISSGTSTYYADSVKGRFTISRDNAKHTVYFPMNSLKPEDPAVYDCAADGLHYYGQRWYYGVDYWVQGTQVTVSS
- polyreactivity (PSR sort gate): low polyreactivity

Sequence: QVQLVESGGGLVQAGGSLRLSCAASGSIFTVNAMGWYRQAPGKERELVARISWSGGSTYYADSVKGRFTISRDNAKNTVYLQMNSLKPEDTAVYYCAKGFYEGVPSYGYDYWGQGTQVTVSS
- polyreactivity (PSR sort gate): low polyreactivity

Sequence: QVQLVESGGGLVQAGGSLRLSCAASGLTFHWYTMGGYRQAPGKERELVAAISSRGGSTYYADSVKGRFTISRDNAKNTDYLQMNSLKPEDTAVYYCAKARRVGFTPIYENWGQGTQVTVSS
- polyreactivity (PSR sort gate): high polyreactivity

Sequence: QVQLVESGGGLVQAGGSLRLSCAASGRTFHDYAMGWYRQAPGKERELVAAISISGVSTYYADSVKGRFTSSRDNAKNTVYLQMNSLKPVDTAVYYCAAAQDAAVYWRPGGYDYWGQGTQVTVSS
- polyreactivity (PSR sort gate): low polyreactivity

Sequence: QVQLVESGGGLVQAGGSLRLSCAASGRIFRYYAMGWYRQAPGKERELVAAINWGGGSTYYADSVKGRFTISRDNAKNTVYLQMNSLKPEDTAVYYCNRDRNSFPHYFSHYGYWGQGTQVTVSS
- polyreactivity (PSR sort gate): high polyreactivity

Sequence: QVQLVESGGGLVQAGGSLRLSCAASGRTFIPYAMGCYRPAPGKERELVAAIRSGASTNYADSVKGRFTISRDNAKITVYLQMNSLNPEDTAVYYCNADFLGGTWFDYWGQGTQVTVSS
- polyreactivity (PSR sort gate): high polyreactivity

Sequence: QVQLVESGGGLVQAGGSLRLSSAASGFTFWYYAMGWYRQAPGKERELVAAITWNGGSTYYADSVKGRFTISRDNAKNTVYLQMNSLKPEDTAVYYCNAYSPFYPVPSEYDYWGQGTQVTVSS
- polyreactivity (PSR sort gate): high polyreactivity
